Series [1] concerns the molecule itself. Description: gel filtration of the E. coli-made protein. How it is done: Since hSTAU1^{55(R)}Δ(SSM-‘RBD’5)-FLAG still had residual dimerization activity (10% that of hSTAU1^{55(R)}-FLAG), and in view of reports that hSTAU1 ‘RBD’2 amino acids 37-79 can interact with full-length hSTAU1, the ability of E. coli-produced ‘RBD’2-RBD3 amino acids 43-173 to dimerize was assayed.
Size standards were prepared by dissolving dried proteins in 2 ml of GF buffer containing 2.97 mM DTT. Proteins consisted of 3.8 mg of conalbumin (75 kDa), 2.3 mg carbonic anhydrase (29 kDa) and 6.7 mg aprotinin(6.5 kDa), each from the Low Molecular Weight Gel Filtration Calibration Kit (GE Healthcare; #28-4038-41), and 6 mg of lysozyme (14.3 kDa) (Sigma; #L6876-10G). The dissolved solution (1 ml, determined using a 1 ml loop) was loaded onto a 120 ml HiLoad™Superdex™ 200 16/60 prep-grade column (GE Healthcare) and separated at a 1 ml/min flow rate using the BioLogicDuoFlow™ FPLC system. For size estimations, gel-filtration of SSM-‘RBD’5 (WT), SSM-‘RBD’5 (E424H, D427V) and ‘RBD’2-RBD3 was performed as described for the size standards. SSM-‘RBD’5 (WT) was loaded at 8 mg/ml, SSM-‘RBD’5 (E424H, D427V) was loaded, and ‘RBD’2-RBD3 was loaded at 6 mg/ml.

In series [2] the target is T1, hSTAU1^55-HA3 (human, UniProt O95793-2 1-496).
T1 construct: also called STAU1-HA3
T1 sequence (looked up): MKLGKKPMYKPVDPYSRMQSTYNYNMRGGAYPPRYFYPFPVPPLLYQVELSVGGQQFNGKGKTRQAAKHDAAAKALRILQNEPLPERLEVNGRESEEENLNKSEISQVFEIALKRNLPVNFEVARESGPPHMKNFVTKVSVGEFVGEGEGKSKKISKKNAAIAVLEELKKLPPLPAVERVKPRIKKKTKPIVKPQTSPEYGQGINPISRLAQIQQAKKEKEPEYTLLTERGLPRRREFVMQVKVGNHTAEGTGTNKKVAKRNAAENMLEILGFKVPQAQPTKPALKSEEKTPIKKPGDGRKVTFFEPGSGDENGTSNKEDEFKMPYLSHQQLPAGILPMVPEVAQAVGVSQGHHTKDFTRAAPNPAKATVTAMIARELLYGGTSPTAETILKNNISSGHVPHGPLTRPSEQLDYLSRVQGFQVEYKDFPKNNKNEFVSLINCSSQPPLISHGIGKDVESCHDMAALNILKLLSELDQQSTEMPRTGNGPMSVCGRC
Put plainly: anti-FLAG and anti-HA co-IP from HEK293T lysates with RNase A. From the text: (§1) To test this idea, HEK293T cells were transiently transfected with hSTAU1⁵⁵-HA₃ and one of three siRNA-resistant (R) plasmids that produce either hSTAU1^{55(R)}-FLAG, hSTAU1^{55(R)}Δ(C-Term)-FLAG or hSTAU1^{55(R)}Δ(SSM-‘RBD’5)-FLAG, each of which was expressed at the level of cellular hSTAU 1. hSTAU1^{55(R)}Δ(C-Term)-FLAG lacks all amino acids C-terminal to ‘RBD’5 Δ1. Cell lysates were immunoprecipitated in the presence of RNaseA using anti-FLAG or, as a negative control, mIgG.

Series [3] concerns the molecule itself. Put plainly: sedimentation velocity analytical ultracentrifugation, rapid monomer-dimer equilibrium model. The procedure:
After purifying GST-hSTAU1⁵⁵(367-476) from E. coli and removing the GST tag, SSM-‘RBD’5 migrated during gel filtration at the size of a dimer Sedimentation velocity determinations using analytical ultracentrifugation confirmed that the average weight distribution of SSM-‘RBD’5 shifted to lower Svedberg values at lower concentrations (FIG. 10C).
hSTAU1-SSM-‘RBD’5 was purified as above, except the final GF buffer contained 2.97 mM DTT, and submitted to the University of Connecticut Analytical Ultracentrifugation Facility for sedimentation velocity analysis. […] Measuring refractive index rather than absorbance was especially useful considering the low extinction coefficient at A₂₈₀ that typifies SSM-‘RBD’5; which lacks tryptophan residues. […] Data were analyzed using: 1) DcDt+, version 2.0.9 (Philo, 2000; 2006), to determine the sedimentation coefficient distribution that was independent of a model, 2) Sedfit, version 10.09beta (Schuck, 2000), to produce a model-based continuous sedimentation coefficient distribution using the Lamm equation or c(s) to identify the number of species (e.g., monomers vs dimers) in solution, and 3) Sedanal, version 5.60 to combine datasets from the three highest of four concentrations tested, perform a global analysis, and determine the protein association model using the Lamm equation.

Series [4] deals with T1, hSTAU1^55-HA3. Put plainly: anti-FLAG co-IP from HEK293T lysates with RNase A, quantitated western blot.
Text: as §1
(§2) The level of hSTAU1⁵⁵-HA₃ or cellular hUPF1 that co-immunoprecipitated with hSTAU1^{55(R)}Δ(SSM-‘RBD’5)—FLAG was only ˜10% the level of, respectively, hSTAU1⁵⁵-HA₃ or cellular hUPF1 that co-immunoprecipitated with hSTAU1^{55(R)}-FLAG or hSTAU1^{55(R)}Δ(C-Term)-FLAG.

For a further series, the target named is T2, cellular hUPF1 (human, UniProt Q92900-2 1-1118, limits assumed).
T2 construct: Endogenous protein detected by western blotting
T2 sequence (looked up): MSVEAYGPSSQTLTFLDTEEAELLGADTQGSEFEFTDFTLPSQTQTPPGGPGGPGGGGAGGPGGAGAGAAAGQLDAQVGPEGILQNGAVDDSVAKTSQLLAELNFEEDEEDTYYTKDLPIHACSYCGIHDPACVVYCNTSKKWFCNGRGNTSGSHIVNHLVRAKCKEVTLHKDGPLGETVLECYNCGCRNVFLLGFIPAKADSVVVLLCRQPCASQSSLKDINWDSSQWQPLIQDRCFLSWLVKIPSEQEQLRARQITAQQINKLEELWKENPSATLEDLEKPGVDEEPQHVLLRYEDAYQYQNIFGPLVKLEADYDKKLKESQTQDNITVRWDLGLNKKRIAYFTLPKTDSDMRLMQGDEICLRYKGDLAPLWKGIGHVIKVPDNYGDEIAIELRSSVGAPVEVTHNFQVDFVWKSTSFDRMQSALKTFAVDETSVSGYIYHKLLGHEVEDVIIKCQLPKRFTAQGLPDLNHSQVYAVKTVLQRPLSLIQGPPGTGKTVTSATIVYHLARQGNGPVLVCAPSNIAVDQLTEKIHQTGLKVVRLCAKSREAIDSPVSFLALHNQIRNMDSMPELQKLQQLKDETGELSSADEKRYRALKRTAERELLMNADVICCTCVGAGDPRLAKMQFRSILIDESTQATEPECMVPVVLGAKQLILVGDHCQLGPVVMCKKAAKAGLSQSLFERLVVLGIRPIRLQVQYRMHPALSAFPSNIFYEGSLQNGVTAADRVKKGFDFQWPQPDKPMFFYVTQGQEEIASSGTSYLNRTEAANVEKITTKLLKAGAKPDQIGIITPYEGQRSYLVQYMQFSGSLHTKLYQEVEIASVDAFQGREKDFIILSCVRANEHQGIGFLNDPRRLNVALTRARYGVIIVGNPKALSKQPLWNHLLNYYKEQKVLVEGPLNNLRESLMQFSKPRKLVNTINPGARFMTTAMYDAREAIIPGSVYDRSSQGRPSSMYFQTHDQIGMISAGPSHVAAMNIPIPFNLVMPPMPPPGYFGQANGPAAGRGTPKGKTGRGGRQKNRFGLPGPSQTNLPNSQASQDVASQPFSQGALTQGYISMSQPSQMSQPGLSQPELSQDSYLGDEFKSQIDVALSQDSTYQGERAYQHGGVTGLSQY
Described as above.
Text: as §1, §2

Series [5] addresses T1, hSTAU1^55-HA3. Description: anti-HA co-IP (reverse direction) from HEK293T lysates, quantitated western blot.
Text: To test this idea, HEK293T cells were transiently transfected with hSTAU1⁵⁵-HA₃ and one of three siRNA-resistant (R) plasmids that produce either hSTAU1^{55(R)}-FLAG, hSTAU1^{55(R)}Δ(C-Term)-FLAG or hSTAU1^{55(R)}Δ(SSM-‘RBD’5)-FLAG, each of which was expressed at the level of cellular hSTAU 1. hSTAU1^{55(R)}Δ(C-Term)-FLAG lacks all amino acids C-terminal to ‘RBD’5 Δ1. […]
as §2

B1: hSTAU1 ‘RBD’2-RBD3 (amino acids 43-173) (other, human, UniProt O95793-2 43-173, looked up)
chain: PLLYQVELSVGGQQFNGKGKTRQAAKHDAAAKALRILQNEPLPERLEVNGRESEEENLNKSEISQVFEIALKRNLPVNFEVARESGPPHMKNFVTKVSVGEFVGEGEGKSKKISKKNAAIAVLEELKKLPP
notes: range 43-173; Made in E. coli from pGEX-6p-1 and cut with PreScission Protease; also called product of pGEX-6p-1-hSTAU1-‘RBD’2-RBD3
With B1, in series [1], the binding result is reported as “binds”.

B2: hSTAU1^55(R)Δ(C-Term)-FLAG (other, human, UniProt O95793-2 1-422, looked up, not shown: small tags and cut ends)
chain: MKLGKKPMYKPVDPYSRMQSTYNYNMRGGAYPPRYFYPFPVPPLLYQVELSVGGQQFNGKGKTRQAAKHDAAAKALRILQNEPLPERLEVNGRESEEENLNKSEISQVFEIALKRNLPVNFEVARESGPPHMKNFVTKVSVGEFVGEGEGKSKKISKKNAAIAVLEELKKLPPLPAVERVKPRIKKKTKPIVKPQTSPEYGQGINPISRLAQIQQAKKEKEPEYTLLTERGLPRRREFVMQVKVGNHTAEGTGTNKKVAKRNAAENMLEILGFKVPQAQPTKPALKSEEKTPIKKPGDGRKVTFFEPGSGDENGTSNKEDEFKMPYLSHQQLPAGILPMVPEVAQAVGVSQGHHTKDFTRAAPNPAKATVTAMIARELLYGGTSPTAETILKNNISSGHVPHGPLTRPSEQLDYLSRVQGFQ
notes: domain: lacks all amino acids C-terminal to ‘RBD’5 α1; End at residue 422 is read from the primer; also called product of pcI-neo-hSTAU1^55(R)Δ(C-Term)-FLAG
On to B2, for which, in the series with hSTAU1^55-HA3 [2], the binding result was “binds”.

B3: hSTAU1 SSM-‘RBD’5 (hSTAU1^55 amino acids 367-476, GST tag removed) (other)
chain: GPLGSKATVTAMIARELLYGGTSPTAETILKNNISSGHVPHGPLTRPSEQLDYLSRVQGFQVEYKDFPKNNKNEFVSLINCSSQPPLISHGIGKDVESCHDMAALNILKLLSELD
notes: Made in E. coli as a GST fusion from pGEX-6p-1, GST cleaved off; In monomer-dimer equilibrium; also called SSM-‘RBD’5(WT); hSTAU1^55(367-476)
Regarding B3, in series [3], the dissociation constant Kd was 79 µM.

B4: hSTAU1^55(R)Δ(SSM-‘RBD’5)-FLAG (other, human, UniProt O95793-2 1-363, looked up, not shown: small tags and cut ends)
chain: MKLGKKPMYKPVDPYSRMQSTYNYNMRGGAYPPRYFYPFPVPPLLYQVELSVGGQQFNGKGKTRQAAKHDAAAKALRILQNEPLPERLEVNGRESEEENLNKSEISQVFEIALKRNLPVNFEVARESGPPHMKNFVTKVSVGEFVGEGEGKSKKISKKNAAIAVLEELKKLPPLPAVERVKPRIKKKTKPIVKPQTSPEYGQGINPISRLAQIQQAKKEKEPEYTLLTERGLPRRREFVMQVKVGNHTAEGTGTNKKVAKRNAAENMLEILGFKVPQAQPTKPALKSEEKTPIKKPGDGRKVTFFEPGSGDENGTSNKEDEFKMPYLSHQQLPAGILPMVPEVAQAVGVSQGHHTKDFTRAAP
notes: domain: Δ(SSM-‘RBD’5); End at residue 363 is read from the primer; also called product of pcI-neo-hSTAU1^55(R)Δ(SSM-‘RBD’5)-FLAG
Turning to B4, the “level of co-immunoprecipitated hSTAU1^55-HA3 relative to that with hSTAU1^55(R)-FLAG or hSTAU1^55(R)Δ(C-Term)-FLAG” value in the series with hSTAU1^55-HA3 [4] was roughly 10%. For the same molecule, the “level of co-immunoprecipitated cellular hUPF1 relative to that with hSTAU1^55(R)-FLAG or hSTAU1^55(R)Δ(C-Term)-FLAG” value with cellular hUPF1 was roughly 10%. For the same molecule, the “level co-immunoprecipitated with hSTAU1^55-HA relative to hSTAU1^55(R)-FLAG or hSTAU1^55(R)Δ(C-Term)-FLAG” value with hSTAU1^55-HA3 [5] was roughly 10%.

B5: hSTAU1^55(R)-FLAG (other, human, UniProt O95793-2 1-496, looked up, not shown: small tags and cut ends)
chain: MKLGKKPMYKPVDPYSRMQSTYNYNMRGGAYPPRYFYPFPVPPLLYQVELSVGGQQFNGKGKTRQAAKHDAAAKALRILQNEPLPERLEVNGRESEEENLNKSEISQVFEIALKRNLPVNFEVARESGPPHMKNFVTKVSVGEFVGEGEGKSKKISKKNAAIAVLEELKKLPPLPAVERVKPRIKKKTKPIVKPQTSPEYGQGINPISRLAQIQQAKKEKEPEYTLLTERGLPRRREFVMQVKVGNHTAEGTGTNKKVAKRNAAENMLEILGFKVPQAQPTKPALKSEEKTPIKKPGDGRKVTFFEPGSGDENGTSNKEDEFKMPYLSHQQLPAGILPMVPEVAQAVGVSQGHHTKDFTRAAPNPAKATVTAMIARELLYGGTSPTAETILKNNISSGHVPHGPLTRPSEQLDYLSRVQGFQVEYKDFPKNNKNEFVSLINCSSQPPLISHGIGKDVESCHDMAALNILKLLSELDQQSTEMPRTGNGPMSVCGRC
notes: Expressed in HEK293T cells at the level of cellular hSTAU1; also called product of pcI-neo-hSTAU1^55(R)-FLAG
On to B5, for which the binding result in the series with hSTAU1^55-HA3 [2] is listed as “binds”.

Source of the values: US20130317087A1 (UNIVERSITY OF ROCHESTER, published 2013).
